Assay: yeast display, Sf9 membrane polyspecificity reagent, FACS + sequencing; frameworks hold sequencing errors
Procedure, shortened: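 Nanobodies came from a synthetic yeast display library in Saccharomyces cerevisiae BJ5465, induced with galactose for 36–48 hours and stained for 1 hour at 4 °C with 10% biotinylated, detergent-solubilized Sf9 membrane reagent. Cells were enriched on streptavidin microbeads and then FACS-sorted, with low and high (top ~1%) gates set on anti-HA fluorescence for expression and streptavidin fluorescence for reagent binding. Each polyreactivity label reflects the gate a clone came from. Genes were amplified by colony PCR, sequenced by MiSeq 2 × 250 and filtered by CDR length.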

Row | Sequence | polyreactivity (PSR sort gate)
1 | QVQLVESGGGLVQAGGSLRLTCAASGSTFVPYVMGWYRQAPGKERELVAVITWTGGSTYYADSVKGRFTISRDNAKNTVYLQMNSLKPEDTAVYYCAAEYSPWFYFEQYDYWGQGTQVTVSS | low polyreactivity
2 | QVQLVESGGGLVQAGGSLRLSCAASGRTFSHYAMGWYRQAPGKERELVAAISGSGGTTYYADSVKGRFTISRDNAKNTVYLQMNSLKPEDTAVYYCNTRGRYLMDYWGQGTQVTVSS | high polyreactivity
3 | QVQLVESGGGLVQAGGSLRLSCAASRRTFNGNAMGWYRQAPGKETELVATITSSAGTTYYADSVKGRFTISRDNAKNTVYLQMNSLKPEDTAVYYCAKRIWRSYPYRPYYSEFGYWGQGTQVTVSS | high polyreactivity
4 | QVQHVESGGGLVQAGGSLRLSCAASGSTFWYYDMGGYRQAPGKERELVAAISTRGDSTYYADSVKGRFTISRDNAKNTVYLQMNSLKPEDTAVYYCAKSRQSSGRVRFDYWGQGTQVTVSS | low polyreactivity
5 | QVQLVESGGGLVQAGGSLRLSCAASGFTFPYNGMGWYRQAPGKERELVASISWSGASTYYADSVKGRFTISRDNAKNTVYLQMNSLKPEDTAVYYCAADPGYYSWGSSQDDYWGQGTQVTVSS | low polyreactivity
6 | QVQLVESGGGLVQAGGSLRLSCAASGSIFTPNVMGWYRQAPGKERELVAAISQSGGSTFYADSVKGRFTISRDNAKNTVYLQMNSLKPEDTAVYYCATEYYGPVYDLDYDYWGQGTQVNVSS | low polyreactivity
7 | QVQLVESGGGLVQAGGSLRLSCAASGITIRYYAMGWYRQAPGKERELVAAITRRGGSTSYADSVKGRFTISRDNAKNTVYLQMNSLKPEDTAVYYCNARKYTNQATYDYWGQGTQVTVSS | high polyreactivity
8 | QVQLEESCGGLVQAGGSLRLSCAASGSTFTIYAMGWYRQAPGKERELVAVISSSGGSTYYADSVKGRFTISRDNAKNTVYLQMNSLKPEDTAVYYCAADTRYFGGYLTLYYWGQGTQVTVSS | low polyreactivity
9 | QLQLVESVGGLDQAGGSLRLSCAASGSIFIRNAIGSYRQAPGKERELVAAISSTGSTYYADSVKGRFTISRDNAKNTVYLQMNSLKPEDTAVYYCADYYTVAMDYWGQGTQVTVSS | low polyreactivity
10 | QVQLVESGGALVQAGGSLRLSCAASGSTFRKYSMGWYRQAPGKERELVAVITKSGGSTYYADSVKGRFTISRDNAKNTVYLQMNSLKPEDTAVYYCAARRGGARHDYWGQGTQVTVSS | high polyreactivity
11 | QVQLVESGGGLVQAGGSLRLSCAASGYTFKRYAMGWYRQPPGKERELVAAITSRGGNTYYADSVKGRFTISRDNAKNTVYLQMNSLKPEDTAVYYCAVGGWSAYHLSQMYYWGQGTQVTVSS | high polyreactivity
12 | QVQLEESGGRLVQAGGSLRLSCAASGFIFGWNAMGWYRQAPGKERELVASIRSSGGTTYADSVKGRFTISRDNAKNTVYLEMNSLKPEDTAVYYCSKRDRYKRYDFWGLGTQVTVSS | low polyreactivity
13 | QVQLVESGGGLVQAGGSLRLSCAASGRIFYGYAMGWYRQAPGKERELVAAITVSGGDTYYADSVKGRFTISRDNAKNTVYLQMNSLKPEDTAVYYCAAKADKRLDYWGQGTQVTVSS | low polyreactivity
14 | QVQIVESGGGLVQAGGSLRLSCAASGSIFGYAMGWYRPAPGKERELVAAISFSGVSTYYADSVKGRFTISRDNAKNTVYLQMNSLKPEDTAVYYCNAYSDGDEDYWGQGTQVTVSS | low polyreactivity
15 | QVQLVESGGGLVQAGGSLRLSCAASGSTFVYYAMGWYRQAPGKERELVAAINYSSGSTYYADSVKGRFTISRDNAKNTVYLQMNSLKPEDTAVYYCATDLLYYQYYSDYDYWGQGTQVTVSS | high polyreactivity
16 | QVQLVESGGGLVQAGGSLRLSCAASGYIFPFNAMGWYRQAPGKERELVAAITNGGRTYYADSVKGRFTISRDNAKNTVYLQMNSLKPEDTAVYYCAAGSKSDMDWGQGTQVTVSS | low polyreactivity
17 | QVQLVESGGGLVQAGGSLRLSCAASGSTFFKNAMGWYRQAPGKESELVAGISYGGGRTYYADSVKGRFTISRDNAKNTVYLQMKSLKPEDTAVYYCNTVTSPAPYYSYDSWGQGTQVTVSS | high polyreactivity
18 | QVQLVESGRGLFQAGGSLRISCAPSGSNFGYYTMGWYRQAPGKDRELVAAITWSGGSTYYADSVKGRFTISRDNAKNTDYLQMYSLKPEDTAVYYCAADGFYYRNWGRIRYYYWGQGTQVTVSS | low polyreactivity
19 | QVQLVESGGGLVQAGGSLRLSCAASGRTFQYYAMGWYRQAPGKERELVARINRSGGSTYYADSVKGRFTISRDNAKNTVYLQMNSLKPEDTAVYYCAADYLSRSPAYEHYYWGQGTQVTVSS | high polyreactivity
20 | QVQLVESGGGLVQAGGSLRLSCAASGSTFSYYAMGWYRQAPGKERELVASISSGGSTNYADSVKGRFTISRANAKNTVYLQMNSLKPEDSAVYYCKADSWTVNRRYYYYRYEYWGQGSQVTVSS | low polyreactivity
21 | QVQLVESGGGLVQAGGSLRLSCAASGGTFYDNDMGWYRQAPGKERELVATITYSGTSTYYADSVKGRFTISRDNAKNTVYLELNSLKTEDTAVYYCATDVLLYFEPVNLDYWGEGTQVTVSS | low polyreactivity
22 | QVQLVESGGGLVLAGGSLRLSCAASGRIFSYYAMGWYRQAPGQERELVAAISWNGGSTYYADSVKGRFTISRDNAKNTVYLQMNSLKPEDTAVYYCAVLPHYEYDYWGQGTQVTVSS | high polyreactivity

Row | Sequence | polyreactivity (PSR sort gate)
23 | QVQLVESGGGLVQAGGSLRLSCAASGRIFNYNAMGWYRQAPGKERELVAAIDWSGGRTYYADSVKGRFTISRDNAKNTVYLQMNSLKPEDTAVYYCNTVGYSLRLRTGGYWGQGTQVTVSS | high polyreactivity
24 | QVQLVESGGGLVQAGGSLRLSCAASGRIFSRNTMGWYRQAPGKEREIVAAISQSGGRTYYADSVKGRFTISRDNAKNPVYLQMNSLNPEDTEVYYCNAQFARSSGFNYWGQGTQVTVSS | high polyreactivity
25 | QVQLVESGGGLVQAGGSLRLSCAASGFTFGFYAMGWYRQAPGKERELVAAITSGGGTTYYADSVKGRFTISRDNAKNTVYLQMNSLKPEYTAVYYCNADPDVPFFSWLTGRGTYDYWGQGTQVTVSS | low polyreactivity
26 | QVQIVESGGGLVQAGGILRLSCAASGITFTSYAMGWYRQAPGKEREFVAAISWSGDRTYYADSVKGRFTISRDNAKNTVYLQMICLKPEETAVYYCNAYIYFSAYDPDYYWGQGTQVTVSS | high polyreactivity
27 | QVQLVESVGGLVQAGCSLRLSCAASGSIIRTNTMGWYRQAPGKEREFVAAISRSGGSTYYADSVKGRFTISRDNAKNTVYLQMNSLKPEDTAGYYCNARWGLGSYGYWGQGTQVTVSS | high polyreactivity
28 | QVQLVESGGGLVQAGGSLRLSCAAYGITFYRNAMGWYRQAPGKEMELVAAITWNGGRTYYADSVKGRFTISRDNAKNTVYLQMNSLKPEDTAVYYCAADSGTLNLASYRYYYWGQGTQVTVSS | low polyreactivity
29 | QVQLVESGGGLVQAGGTLRLSCAASGSMFDGNAMGWYRQAPGKERELVAAISRRGGSTYYADSVKGRFTISRDNAKNTVYLQKNSLKPEDTAVYYCNAYLSYFDGNYWGEGTQVTVSS | high polyreactivity
30 | QVQLVESGGGLVQAGGSLRLTCPASGGIFYDYSMVWYRQAPGKERQLVAAITRSGDSTYYADSVKGRFTISRDNAKNTVYLQMNSLKPEDTAVYYCAADIWSSDYEEFYYWVQGTQVTVSS | low polyreactivity
31 | QVHLVESGGGLVQAGVSLRLSCAASGSIFRINGMGWYRQAPGKERELVAAITRSGGSTFYADSVKGRFTISRDTAKNTVYLQMNSLKPEETAVYYCAAVWYYSTVPARYEYWGQGTQVTVSS | low polyreactivity
32 | QVQLVESGGGLVQAGGSLRLSCAASGFTFRYYAMGWYRPAPGKERELVAGISWSGSRTYYADSVKGRFTISRDSAKNTVYLQMNSLKPEDTAVYYCAKVNSYGPVPDRYDYWGQGTQVTVSS | high polyreactivity
33 | QVQLVESGGGLVQAGGSLRLSCAASGFIFVDYTMGWYRQAPGKERELVAAITWTGGSTYADSVKGRFTISRDNAKNTVYLQMNSLKPEDTAVYYCAAGQGPDMDYWGQGTQVTVSS | low polyreactivity
34 | QVQLVESGGGLVQAGGSLRLSCAASGSIFSYYAMGCYRQAPGKERQLVASISWIGTSTYYADSVKGRFTISRDNAKNTFYLQINSLKPEDTAVYYCNADWTYYGFGTRLDYWGQGTQVTVSS | low polyreactivity
35 | QDQLVESGGGLVQAGGSLSLSCAASGRIYRYYAMGWSRQAPGKERELVADISSGDSTYYADSVKGRFTMSRDNAKNTVYLQMNSLKPEDTAVYNCNADVYSWVSGKEGDYWGQGTQVTVSS | low polyreactivity
36 | QVQLVESGGGLVQAGGSLRLSCAASGSTYDDNAMGWYRQAPRKERELVAGISTNGGSTSYADSVKGRFTISRDNAKNTVYLQMNSLYPEDTAVYYCATGLYVQFDYWGQGTQVTVSS | low polyreactivity
37 | QVQLVESGGGLVQAGGSLRLSCAASGFTFVRYVMGWYRQAPGKERELVAAISRSGGSTHYADSVKGRFTISRDNAKNTVYLQMNSLKPEDTAVYYCAAASPRWPGQGDYWGQGTQVTVSS | high polyreactivity
38 | QVQLVESGGGLVQAGGSLRLSCAASGRIFGGYAMGWYRQAPGKERELVAAISNGGSTYYADSVKGRFTISRDNAKNTVYLQMNSLKPEDTAVYYCAARWNWTGYRYDHWGQGTQVTVSS | low polyreactivity
39 | QVQLVESGGGLVQAGGSLRLSCAASGSTFRGNAMGWYRQAPGNEREFVAAITVSGGSTYYADSVKGRFTSSRDNAKNTVYLQMISLKPEDTAVYYCAGLTRGRGYDSWGQGTQVTVSS | high polyreactivity
40 | QVQLVESGGGLVQAGGSLRLSCAASGRNFYYYAMGWYRQAPGKERELVAGISWSAGSTYYADSVKGRFTISRDNAKNTVYLQMNSLKPEDTAVYYCAARYWQSYRSQVTHSSTLDYWGQGTQVTVSS | low polyreactivity
41 | QDQLVVSGGGLVQAGGSLRLSCAASGFIFYRYSMGWYSQEPGKEREVVASITRSGGSTYYAASVKGRFTISRDKAKNTLYLPMNSLKPVETAVYYCATAIRYFVSYDYWGQGTEVTVSS | high polyreactivity
42 | QVQLVESGGGLVQAGGSLRLSCAASGRTFSYYAMGWYRQAPGKERELVARITYRGGRTYYADSVKGRFTISRDNAKNTVYLQMNSLKPEDTAVYYCNADAINKRGGLDYWGQGTQVTVSS | high polyreactivity
43 | QDQLVESGGGLVQAGGSLRLSCAASGLNLGIYAMGWYRQAPGKERELVAAISRGGGSTYYADSVKGRFTISRDNAKNTVYLQMNSLKPEDTAVFYCNAVRYRYGVFPYYYWGQGTQVTVSS | high polyreactivity

Source: the nanobody polyreactivity screen of Harvey et al. (2022)
